Laboratory results from paper PMC3486911 (PLoS Pathogens, 2012).

Key:
[1] = target: Factor H binding protein, variant group 2 (V2.p21), wild type (UniProt E6MV22); assay: SPR
[2] = target: Factor H binding protein, variant group 3 (V3.p28), wild type (UniProt E6MV22); assay: SPR
[3] = target: Factor H binding protein, variant group 1 (V1.p1), wild type (Neisseria meningitidis) (UniProt Q9JXV4); assay: SPR
[4] = target: V1 fHbp with Val272 replaced by Ala (Neisseria meningitidis); assay: SPR
[5] = target: V2 fHbp Thr304Glu (Neisseria meningitidis); assay: SPR
[6] = target: Factor H binding protein, variant group 2 (V2.p21), wild type (Neisseria meningitidis) (UniProt E6MV22); assay: SPR
[7] = target: V2 fHbp with Glu313 replaced by Ala (Neisseria meningitidis); assay: SPR
[8] = target: V3 fHbp with Val272 replaced by Ala (Neisseria meningitidis); assay: SPR
[9] = target: V2 fHbp Thr304Ala (Neisseria meningitidis); assay: SPR
[10] = target: Factor H binding protein, variant group 3 (V3.p28), wild type (Neisseria meningitidis) (UniProt E6MV22); assay: SPR
[11] = target: V2 fHbp Glu283Ala (Neisseria meningitidis); assay: SPR
[12] = target: V3 fHbp P106A (Neisseria meningitidis); assay: SPR
[13] = target: V2 fHbp with Ala at position 157 (Neisseria meningitidis) (UniProt E6MV22); assay: SPR
[14] = target: V1 fHbp I311A (Neisseria meningitidis); assay: SPR
[15] = target: V2 fHbp with Val272 replaced by Ala (Neisseria meningitidis); assay: SPR
[16] = target: V1 fHbp E283A (Neisseria meningitidis); assay: SPR
[17] = target: V2 fHbp with Leu195 replaced by Ala (Neisseria meningitidis); assay: SPR
[18] = target: T1, Factor H binding protein, variant group 1 (V1.p1), wild type (Neisseria meningitidis, UniProt Q9JXV4 20-274); assay: not stated; dose response curve of mfH67 binding V1 fHbp (Fig. S2); conditions: both partners purified
T1 construct: also called V1 fHbp; fHbp
T1 sequence: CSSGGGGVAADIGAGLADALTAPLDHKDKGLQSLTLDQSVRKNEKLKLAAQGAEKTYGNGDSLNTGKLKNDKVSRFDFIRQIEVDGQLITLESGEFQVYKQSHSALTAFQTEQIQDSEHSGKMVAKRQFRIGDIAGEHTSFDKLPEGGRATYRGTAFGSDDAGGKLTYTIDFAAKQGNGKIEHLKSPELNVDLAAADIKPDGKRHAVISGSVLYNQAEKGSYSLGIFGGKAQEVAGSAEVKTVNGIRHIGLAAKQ

[19] = target: T1, Factor H binding protein, variant group …; assay: SPR; conditions: both partners purified

Molecule: human factor H CCP domains 6 and 7 K351R; Y352K
- Kd [1]: 44000 nM
- Kd [2]: 33000 nM

Molecule: human fH67 with His337 and Arg341 replaced by the murine residues (domain or fragment)
- Kd [3]: 7000 nM

Molecule: human factor H CCP domains 6 and 7 (domain or fragment)
- fold reduction in binding relative to wild type [4]: > 5 fold
- fold increase in KD relative to wild type [5]: 200 fold
- Kd [6]: 1.9 nM
- fold reduction in binding relative to wild type [7]: > 5 fold
- fold reduction in binding relative to wild type [8]: > 5 fold
- fold increase in KD relative to wild type [9]: 10 fold
- Kd [10]: 2.8 nM
- fold increase in KD relative to wild type [11]: 40 fold
- fold increase in strength of binding relative to wild type [12]: 100 fold
- fold increase in binding relative to wild type [13]: 5 fold
- Kd [14]: 1300 nM
- fold reduction in binding relative to wild type [15]: > 5 fold
- Kd [3]: 2.2 nM
- fold increase in KD relative to wild type [16]: 7 fold
- fold reduction in binding relative to wild type [17]: > 5 fold

B1: murine factor H CCP domains 6 and 7 (domain or fragment)
chain: LKPCEFPQFKYGRLYYEESLRPNFPVSIGNKYSYKCDNGFSPPSGYSWDYLRCTAQGWEPEVPCVRKCVFHYVENGDSAYWEKVYVQGQSLKVQCYNGYSLQNGQDTMTCTENGWSPPPKCI
notes: also called mfH67; mfH; source: cloned into pET-15b; expressed and purified using the method described previously [40]
- fold higher KD than hfH [18]: > 10000 fold

B2: human fH67 with Lys351 and Tyr352 replaced by the murine residues (domain or fragment)
chain: TLKPCDYPDIKHGGLYHENMRRPYFPVAVGRKYSYYCDEHFETPSGSYWDHIHCTQDGWSPAVPCLRKCYFPYLENGYNQNHGRKFVQGKSIDVACHPGYALPKAQTTVTCMENGWSPTPRCI
- Kd [19]: 2800 ± 500 nM
